Here are results for 39 substances from patent US20260008815A1, “CYCLIC PEPTIDE OR SALT THEREOF, AND USES THEREOF” (FUJIFILM Corporation, priority 2023, published 2026).

Bridge positions count the residues as written; N and C are the ends. Ends that are not written are not given here. COCH2 = acetyl group that carries the bridge

T1 sequence (P21802 with tags, fused parts or gaps limits assumed): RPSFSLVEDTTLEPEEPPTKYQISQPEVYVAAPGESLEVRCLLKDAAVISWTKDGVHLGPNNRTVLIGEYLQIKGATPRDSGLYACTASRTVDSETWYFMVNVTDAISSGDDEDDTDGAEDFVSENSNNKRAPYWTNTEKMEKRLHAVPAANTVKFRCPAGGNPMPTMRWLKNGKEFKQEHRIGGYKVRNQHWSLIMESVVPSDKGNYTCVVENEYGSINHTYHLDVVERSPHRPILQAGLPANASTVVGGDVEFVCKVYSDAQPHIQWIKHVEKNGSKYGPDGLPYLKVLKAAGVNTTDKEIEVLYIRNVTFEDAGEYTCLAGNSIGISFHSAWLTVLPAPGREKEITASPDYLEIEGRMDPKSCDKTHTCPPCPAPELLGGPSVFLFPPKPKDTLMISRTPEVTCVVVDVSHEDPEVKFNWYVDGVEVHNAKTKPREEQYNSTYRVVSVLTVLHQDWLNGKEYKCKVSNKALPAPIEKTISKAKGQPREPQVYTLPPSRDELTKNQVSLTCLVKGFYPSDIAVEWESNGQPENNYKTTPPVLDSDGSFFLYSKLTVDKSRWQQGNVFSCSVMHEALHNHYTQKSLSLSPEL

The assay concerns the target T1, Recombinant Human FGFR2 alpha (IIIc) Fc Chimera Protein (Homo sapiens, UniProt P21802).
T1 construct: Fc (chimera); purchased R&D systems 712-FR-050
The assay is described as follows: ELISA binding affinity of enzymatically synthesized peptide to FGFR. To be noted: ELISA luminescence signal at 10 nmol/L peptide, SEQ ID NO: 47 at 10 nmol/L standardized to 1; enzyme synthesis product. On the procedure: The binding affinity of the peptide to FGFR was evaluated using an ELISA method.
The binding affinity of the enzymatically synthesized peptide to FGFR was measured by evaluating the amount of the peptide bound to FGFR by ELISA.
First, 5 ng of Recombinant Human FGFR2 alpha (IIIc) Fc Chimera Protein (R&D systems, 712-FR-050) was immobilized in each well of a 96-well plate, and blocked with Pierce Protein-Free (PBS) Blocking Buffer (Thermo, 37572), and a peptide diluted with Can Get Signal Immunoreaction Enhancer Solution I (TOYOBO, NKB-101) was then added and reacted at room temperature for 3 hours. After washing with 0.05% Tween 20-containing phosphate buffered saline (PBS), an anti-Myc antibody (Cell Signaling, 14038S) diluted with Can Get Signal Immunoreaction Enhancer Solution II (TOYOBO, NKB-101) was added and reacted at room temperature for 2 hours. After washing with 0.05% Tween 20-containing PBS, SuperSignal ELISA Femto Substrate (Thermo, 37075) was added, and the luminescence amount was measured. The dose-response relationship was calculated from using the difference between the luminescence amount in the well in which FGFR was immobilized and the luminescence amount in the well in which FGFR was not immobilized, and the concentration of the peptide at the time of reaction, and the binding affinity to FGFR was evaluated according to the following evaluation criteria. The evaluation result preferably satisfies the evaluation criteria A, B, or C.
In a case where a value of a luminescence signal emitted by the cyclic peptide set forth in SEQ ID NO: 47 at a reaction concentration of 10 nmol/L is standardized to 1, evaluation criteria of the luminescence signal value emitted by the cyclic peptide at a reaction concentration of 10 nmol/L is as follows. • A: 0.7 or more • B: 0.5 or more and less than 0.7 • C: 0.1 or more and less than 0.5 • D: less than 0.1.
On the technique in general: An ELISA detects its analyte on a solid surface through an enzyme-linked reagent.
As for “114 (YCTDNYIDDIQFWYLFLYK(COCH2)H; thioether 2-19 (inferred)) [compound 114]”, the “Evaluation result of binding affinity to FGFR” value (shortened to “Evaluation result”) is given as “A (0.7 or more)”.

As to “115 (NCPNYWSQIQWHYFQAYK(COCH2)Q; thioether 2-18 (inferred)) [compound 115]”, the “Evaluation result” value was “A (0.7 or more)”. In the case of “116 (QCYQNWYLYQYLVERYYK(COCH2)D; thioether 2-18 (inferred)) [compound 116]” it was “C (0.1 or more and less than 0.5)”; in that of “117 (LCRNYINPQQWRYFALYK(COCH2)N; thioether 2-18 (inferred)) [compound 117]”, “A (0.7 or more)”; in that of “118 (LCPVPQQTDYLRWYQIIHK(COCH2)Q; thioether 2-19 (inferred)) [compound 118]”, “C (0.1 or more and less than 0.5)”. For “119 (QCRYFWQYVLERYRVRLPK(COCH2)E; thioether 2-19 (inferred)) [compound 119]”, the “Evaluation result” value is “A (0.7 or more)”. Then “120 (QCWYIQQYIWERYFLWHNK(COCH2)E; thioether 2-19 (inferred)) [compound 120]”, with “C (0.1 or more and less than 0.5)”; and “121 (DCYWDDQQYSFLQLYK(COCH2)R; thioether 2-16 (inferred)) [compound 121]”, with “A (0.7 or more)”.

As to “122 (QCENWVNSTQFEFFWQYK(COCH2)T; thioether 2-18 (inferred)) [compound 122]”, the “Evaluation result” value was “B (0.5 or more and less than 0.7)”. Then “123 (QCQNFITEVQFTYFWHYK(COCH2)T; thioether 2-18 (inferred)) [compound 123]”, with “A (0.7 or more)”; and “124 (DCRDLQLFYIYQYLDALK(COCH2)K; thioether 2-18 (inferred)) [compound 124]”, with “C (0.1 or more and less than 0.5)”. As for “125 (YCRDNYFYLEQWQYLYLYK(COCH2)H; thioether 2-19 (inferred)) [compound 125]”, the “Evaluation result” value is “A (0.7 or more)”. As for “126 (LCEINWLSQEQYGYFIEYK(COCH2)T; thioether 2-19 (inferred)) [compound 126]”, the “Evaluation result” value is on record as “A (0.7 or more)”. In the case of “127 (YCPYNFYNIIQFHYFLTYK(COCH2)T; thioether 2-19 (inferred)) [compound 127]” it was “A (0.7 or more)”; in that of “128 (PCVQNYFNDLQWIFLQHYK(COCH2)R; thioether 2-19 (inferred)) [compound 128]”, “A (0.7 or more)”.

With “129 (ECPWNFVNQLQWQYFITYK(COCH2)V; thioether 2-19 (inferred)) [compound 129]”, the “Evaluation result” value is reported as “A (0.7 or more)”.

Consider “130 (HCDGNWWNSQQFFYLLLYK(COCH2)H; thioether 2-19 (inferred)) [compound 130]”, for which the “Evaluation result” value is listed as “A (0.7 or more)”. In the case of “131 (YCEENYLDPEQYQYFIYFK(COCH2)Y; thioether 2-19 (inferred)) [compound 131]” it was “A (0.7 or more)”; in that of “132 (ECQENFVDRQQYWYFLSYK(COCH2)F; thioether 2-19 (inferred)) [compound 132]”, “A (0.7 or more)”; in that of “133 (ECLGNYFSHEQYQYLLQYK(COCH2)I; thioether 2-19 (inferred)) [compound 133]”, “A (0.7 or more)”. In the case of “134 (LCADQYDYLLQYVFWRTYK(COCH2)I; thioether 2-19 (inferred)) [compound 134]” it was “C (0.1 or more and less than 0.5)”; in that of “135 (QCTYLAQYLVERYHLTK(COCH2)T; thioether 2-17 (inferred)) [compound 135]”, “C (0.1 or more and less than 0.5)”. For “136 (GCEENYLDPEQYQYFIYFK(COCH2)Y; thioether 2-19 (inferred)) [compound 136]”, the “Evaluation result” value was “A (0.7 or more)”. In the case of “137 (PCEENYLDPEQYQYFIYFK(COCH2)Y; thioether 2-19 (inferred)) [compound 137]” it was “A (0.7 or more)”; in that of “138 (LCEENYLDPEQYQYFIYFK(COCH2)Y; thioether 2-19 (inferred)) [compound 138]”, “A (0.7 or more)”; in that of “139 (ICEENYLDPEQYQYFIYFK(COCH2)Y; thioether 2-19 (inferred)) [compound 139]”, “A (0.7 or more)”. Turning to “140 (VCEENYLDPEQYQYFIYFKY; Description of Artificial Sequence: Cyclic peptide) [compound 140]”, the “Evaluation result” value is recorded as “A (0.7 or more)”.

As to “141 (FCEENYLDPEQYQYFIYFKY; Description of Artificial Sequence: Cyclic peptide) [compound 141]”, the “Evaluation result” value is given as “A (0.7 or more)”. Then “142 (WCEENYLDPEQYQYFIYFKY; Description of Artificial Sequence: Cyclic peptide) [compound 142]”, with “A (0.7 or more)”; and “143 (NCEENYLDPEQYQYFIYFKY; Description of Artificial Sequence: Cyclic peptide) [compound 143]”, with “A (0.7 or more)”; and “144 (QCEENYLDPEQYQYFIYFKY; Description of Artificial Sequence: Cyclic peptide) [compound 144]”, with “A (0.7 or more)”. Then “145 (SCEENYLDPEQYQYFIYFKY; Description of Artificial Sequence: Cyclic peptide) [compound 145]”, with “A (0.7 or more)”; and “146 (TCEENYLDPEQYQYFIYFKY; Description of Artificial Sequence: Cyclic peptide) [compound 146]”, with “A (0.7 or more)”.

For the substance “147 (DCEENYLDPEQYQYFIYFKY; Description of Artificial Sequence: Cyclic peptide) [compound 147]”, the “Evaluation result” value is given as “A (0.7 or more)”. Then “148 (ECEENYLDPEQYQYFIYFKY; Description of Artificial Sequence: Cyclic peptide) [compound 148]”, with “A (0.7 or more)”; and “149 (RCEENYLDPEQYQYFIYFKY; Description of Artificial Sequence: Cyclic peptide) [compound 149]”, with “A (0.7 or more)”.

Consider “150 (HCEENYLDPEQYQYFIYFK(COCH2)Y; thioether 2-19 (inferred)) [compound 150]”, for which the “Evaluation result” value was “A (0.7 or more)”. Then “151 (YCGENYLDPEQYQYFIYFK(COCH2)Y; thioether 2-19 (inferred)) [compound 151]”, with “A (0.7 or more)”. Then “152 (YCPENYLDPEQYQYFIYFK(COCH2)Y; thioether 2-19 (inferred)) [compound 152]”, with “A (0.7 or more)”.
